The text below walks through data of patent US12692310B2, “ASIC1 channel antagonist antibody” (ShanghaiTech University, priority 2019, dated 2026).

Assay [1] concerns the target T1, hASIC1a-ECD (Homo sapiens, UniProt P78348).
T1 construct: The ectodomain of hASIC1a (hASIC1a-ECD) with an N-terminal fused IL-2 tag and Flag tag; IL-2 tag (N); made in house; host or cells: HEK293F
T1 sequence (P78348 67-427 limits assumed): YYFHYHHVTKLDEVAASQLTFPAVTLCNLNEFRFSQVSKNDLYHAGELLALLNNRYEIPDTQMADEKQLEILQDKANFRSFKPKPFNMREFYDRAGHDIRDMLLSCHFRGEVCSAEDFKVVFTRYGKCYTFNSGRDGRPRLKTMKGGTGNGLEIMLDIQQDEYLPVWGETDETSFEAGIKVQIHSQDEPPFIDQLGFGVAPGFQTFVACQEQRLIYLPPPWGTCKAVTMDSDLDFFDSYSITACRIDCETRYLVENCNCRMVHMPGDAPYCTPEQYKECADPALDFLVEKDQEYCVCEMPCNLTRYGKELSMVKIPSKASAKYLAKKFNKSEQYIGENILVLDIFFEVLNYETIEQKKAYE
As to the kind of experiment: Gel filtration of hASIC1a-ECD and ASC06-Fab complex. It counts as binding. Conditions: Superdex 200. Here is the method:
(§1) Negative Stain Electron Microscopy (EM): (1) Sample Preparation and Data Collection. The antigen-binding fragment of ASC06-IgG1 (ASC06-Fab) was prepared by digesting ASC06-IgG1 with papain followed by protein A affinity purification and gel filtration. The ectodomain of hASIC1a (hASIC1a-ECD) with an N-terminal fused IL-2 tag and Flag tag was expressed in HEK293F cells and purified by anti-Flag M2 magnetic beads and gel filtration using PBS buffer, pH 7.4. The ASC06-Fab and hASIC1a-ECD were incubated at a molar ratio of 3:1 in PBS buffer, pH 7.4, overnight at 4° C. to form a tertiary complex. This complex was further isolated by gel filtration. […] The peak fractions containing this complex were collected and subjected to negative staining EM.
To understand the nature of binding of ASC06 to hASIC1a, a complex was formed by mixing hASIC1a-ECD and ASC06-Fab. The complex, hASIC1a-ECD and ASC06-Fab were resolved using gel filtration.
In general terms: Size exclusion chromatography separates by hydrodynamic size, large species first.

Assay [2] deals with T1, hASIC1a-ECD. Nature of the assay: Negative stain electron microscopy of hASIC1a-ECD/ASC06-Fab complex. Conditions: negative staining EM. Here is the method: as §1
The EM samples were prepared by diluting the purified complex of hASIC1a-ECD and ASC06-Fab to 0.01 mg/mL. […]
All micrographs were recorded with a Tecnai G2 Spirit transmission electron microscope (FEI) equipped with an LaB6 cathode operated at 120 kV and a 4,000×4,000 Eagle CCD camera at a calibrated magnification of 67,000 times, resulting in a pixel size of 1.74 Å.
EMI mage Processing and 3D Reconstruction. […] All of the recorded micrographs were first decimated twofold (resulting in a pixel size of 3.48 Å). […]

B1: ASC06-Fab: antigen-binding fragment of ASC06-IgG1 prepared by digesting ASC06-IgG1 with papain (antibody, V domains shown)
VH: QVQLQQSGGGLVQPGGSLRLSCAASGFTFSSYAMSWVRQAPGKGLEWVSAISGSGGSTYYADSVKGRFTISRDNSKNTLYLQMNSLRAEDTAVYYCAKDSFYGYSKGDWGQGTLVTVSS
VL: QSALTQPASVSGSPGQSITISCTGTSSDVGAYNYVSWYQQQPGKAPKLMIYGVSNRPSGVSNRFSGSKSGNAASLTISGLQAEDEADYYCSSYTSSSTYVFGTGTKLTVLG
Take B1: the “complex formation with hASIC1a-ECD homotrimer” value with hASIC1a-ECD [1] is “formed a stable complexes”. Also, the location of epitope entry with hASIC1a-ECD [2] is “located on a surface formed by two hASIC1a-ECD subunits”.
